Assay results: US20240417469A1 (CONCEPT TO MEDICINE BIOTECH, published 2024)
Where a chain is given by its changes, count along the chain named.

B1: Hu153A6B1-10 (antibody, V domains shown)
VH: EVQLQESGPGLVKPSETLSLTCTVSGGSISSYNIHWVRQPPGKGLEWMGRIRYNGDTSYNSALKSRLTISRDTSKNQFSLKLSSVTAADTAVYYCTRGPYGGSREPLFDYWGQGTMVTVSS
VL: DIQMTQSPSSLSASVGDRVTITCKTSQNINKYLNWFQQKPGKAPKLLIYTTNNLQTGIPSRFSGSGSGTDFTLTISSLQPEDFATYYCLQHGSGYTFGQGTKLEIK
notes: humanized mAb
B2: Hu153A6B1-13 (antibody, V domains shown)
VH: B1 VH with V37I, M48I, L67V, R71V, T96A
VL: B1 VL with Y87F
notes: humanized mAb
B3: Hu155A9B1-5 (antibody, V domains shown)
VH: B1 VH with G27F, I34V, I51V, F78A, R104S
VL: B1 VL with T25A, F36Y, K45R, I58V, G92N
notes: humanized mAb; also called 155z5
B4: Hu155A9B1-12 (antibody, V domains shown)
VH: B1 VH with G27F, I29L, S30T, I34V, I51V, F78A, R104S
VL: B1 VL with T25A, K45R, G92N
notes: humanized mAb
B5: Hu153A6B1-12 (antibody, V domains shown)
VH: B1 VH with G27F, I29L, S30T, F78V
VL: B1 VL
notes: humanized mAb
B6: Hu155A9B1-18 (antibody, V domains shown)
VH: B1 VH with G27F, I29L, S30T, I34V, I51V, F78A, R104S
VL: B1 VL with T25A, K45R, Y87F, G92N
notes: humanized mAb
B7: Hu155A9B1-8 (antibody, V domains shown)
VH: B1 VH with I34V, M48I, I51V, L67V, T96A, R104S
VL: B1 VL with T25A, K45R, G92N
notes: humanized mAb; also called 155z8
B8: Hu155A9B1-10 (antibody, V domains shown)
VH: B1 VH with I34V, I51V, R104S
VL: B1 VL with T25A, K45R, G92N
notes: humanized mAb
B9: Hu155A9B1-16 (antibody, V domains shown)
VH: B1 VH with I34V, I51V, R104S
VL: B1 VL with T25A, K45R, Y87F, G92N
notes: humanized mAb; also called 155z16
B10: Hu153A6B1-14 (antibody, V domains shown)
VH: B1 VH with M48I, L67V, T96A
VL: B1 VL with Y87F
notes: humanized mAb
B11: Hu155A9B1-17 (antibody, V domains shown)
VH: B1 VH with G27F, I34V, I51V, F78A, R104S
VL: B1 VL with T25A, K45R, Y87F, G92N
notes: humanized mAb
B12: Hu153A6B1-17 (antibody, V domains shown)
VH: B1 VH with G27F, F78V
VL: B1 VL with Y87F
notes: humanized mAb
B13: Hu155A9B1-14 (antibody, V domains shown)
VH: B1 VH with I34V, M48I, I51V, L67V, T96A, R104S
VL: B1 VL with T25A, K45R, Y87F, G92N
notes: humanized mAb
B14: Hu155A9B1-11 (antibody, V domains shown)
VH: B1 VH with G27F, I34V, I51V, F78A, R104S
VL: B1 VL with T25A, K45R, G92N
notes: humanized mAb
B15: Hu155A9B1-13 (antibody, V domains shown)
VH: B1 VH with I34V, V37I, M48I, I51V, L67V, R71V, T96A, R104S
VL: B1 VL with T25A, K45R, Y87F, G92N
notes: humanized mAb
B16: Hu155A9B1-15 (antibody, V domains shown)
VH: B1 VH with I34V, I51V, T96A, R104S
VL: B1 VL with T25A, K45R, Y87F, G92N
notes: humanized mAb
B17: Hu155A9B1-9 (antibody, V domains shown)
VH: B1 VH with I34V, I51V, T96A, R104S
VL: B1 VL with T25A, K45R, G92N
notes: humanized mAb
B18: Hu155A9B1-1 (antibody, V domains shown)
VH: B1 VH with I34V, V37I, M48I, I51V, L67V, R71V, T96A, R104S
VL: B1 VL with T25A, F36Y, K45R, I58V, G92N
notes: humanized mAb
B19: Hu155A9B1-2 (antibody, V domains shown)
VH: B1 VH with I34V, M48I, I51V, L67V, T96A, R104S
VL: B1 VL with T25A, F36Y, K45R, I58V, G92N
notes: humanized mAb
B20: Hu155A9B1-7 (antibody, V domains shown)
VH: B1 VH with I34V, V37I, M48I, I51V, L67V, R71V, T96A, R104S
VL: B1 VL with T25A, K45R, G92N
notes: humanized mAb
B21: Hu153A6B1-15 (antibody, V domains shown)
VH: B1 VH with T96A
VL: B1 VL with Y87F
notes: humanized mAb
B22: Hu155A9B1-4 (antibody, V domains shown)
VH: B1 VH with I34V, I51V, R104S
VL: B1 VL with T25A, F36Y, K45R, I58V, G92N
notes: humanized mAb
B23: Hu153A6B1-11 (antibody, V domains shown)
VH: B1 VH with G27F, F78V
VL: B1 VL
notes: humanized mAb
B24: Hu153A6B1-18 (antibody, V domains shown)
VH: B1 VH with G27F, I29L, S30T, F78V
VL: B1 VL with Y87F
notes: humanized mAb
B25: Hu153A6B1-16 (antibody, V domains shown)
VH: B1 VH
VL: B1 VL with Y87F
notes: humanized mAb

Tests used:
[1] = molecular target: T1, recombinant CD3D&E protein (human CD3-his tag) (human, UniProt P04234 22-105; P07766 23-126, limits assumed); assay: SPR Biacore, Ab captured on Protein A;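 further: humanized antibodies on a Protein A chip, human CD3-his analyte flowed over in serial dilutions for 3 min, dissociation tracked 120–360 s on a Biacore T200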
T1 construct: Analyte in Biacore; also called CD3D&E-His; CD3d&ε-His

[2] = molecular target: T2, human CD3 on cells (human PBMC; Jurkat TCR/CD3 NFAT reporter cells) (human, UniProt P07766 23-207; P04234 22-171; P09693 23-182); assay: cell-based or functional assay
[3] = molecular target: T2, human CD3 on cells (human PBMC; Jurkat …); assay: cell-based or functional assay; remark: listed apart in the source
[4] = molecular target: T3, human CD3 protein (human, UniProt P07766 23-126; P04234 22-105); assay: ELISA, plate-coated CD3;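 further: binding to plate-immobilized human CD3 protein, bound antibody detected with peroxidase-labelled anti-human IgG and TMB, read as absorbance at 450 nm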
T3 construct: ELISA coating protein; also called Human CD3D & CD3E Heterodimer Protein
Wherever Emax is given: unit not given here.

T1 sequence (P04234 22-105 limits assumed, chain 1 of 2): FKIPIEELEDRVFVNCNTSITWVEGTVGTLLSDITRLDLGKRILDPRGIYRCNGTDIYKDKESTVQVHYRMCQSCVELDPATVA
T1 sequence (P07766 23-126 limits assumed, chain 2 of 2): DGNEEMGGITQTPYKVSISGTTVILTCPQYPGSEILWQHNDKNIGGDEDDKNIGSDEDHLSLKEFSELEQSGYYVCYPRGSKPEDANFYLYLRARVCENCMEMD
T3 sequence (P07766 23-126 limits assumed, chain 1 of 2): as the sequence (P07766 23-126 limits assumed, chain 2 of 2) above
T3 sequence (P04234 22-105 limits assumed, chain 2 of 2): as the sequence (P04234 22-105 limits assumed, chain 1 of 2) above
T2 sequence (P07766 23-207, chain 1 of 3): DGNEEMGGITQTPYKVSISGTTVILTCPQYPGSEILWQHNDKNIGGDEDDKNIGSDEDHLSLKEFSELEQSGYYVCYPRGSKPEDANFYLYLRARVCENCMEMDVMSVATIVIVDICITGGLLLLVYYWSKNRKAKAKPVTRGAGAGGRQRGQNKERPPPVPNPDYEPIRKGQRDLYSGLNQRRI
T2 sequence (P04234 22-171, chain 2 of 3): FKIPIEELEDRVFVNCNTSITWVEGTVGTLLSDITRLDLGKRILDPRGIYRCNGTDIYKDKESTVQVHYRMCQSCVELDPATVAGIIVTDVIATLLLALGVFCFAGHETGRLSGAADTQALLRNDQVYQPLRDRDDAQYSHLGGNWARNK
T2 sequence (P09693 23-182, chain 3 of 3): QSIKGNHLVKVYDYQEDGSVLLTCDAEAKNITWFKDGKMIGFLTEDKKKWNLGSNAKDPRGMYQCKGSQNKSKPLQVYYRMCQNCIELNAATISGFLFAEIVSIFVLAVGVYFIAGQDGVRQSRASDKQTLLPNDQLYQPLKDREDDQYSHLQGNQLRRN

Binder	Kd [1]	koff [1]	kon [1]	% of SP34 [2]	Emax [2]	CD3-NFAT Activity by CD3 mAb [3]	EC50 [4]
B1	70.5 nM	0.0568 s⁻¹	806000 M⁻¹ s⁻¹	73.9%	4080	> 50 % SP34	3.44 ng/mL
B2	29.6 nM	0.0103 s⁻¹	349000 M⁻¹ s⁻¹	23.2%	1280	≤ 50 % SP34	6.38 ng/mL
B3	61.4 nM	0.00637 s⁻¹	104000 M⁻¹ s⁻¹	79.9%	4050	> 50 % SP34	3.27 ng/mL
B4	51.2 nM	0.00286 s⁻¹	55900 M⁻¹ s⁻¹	72.4%	4160	> 50 % SP34	3.35 ng/mL
B5	13.5 nM	0.00107 s⁻¹	79400 M⁻¹ s⁻¹	87.5%	4830	> 50 % SP34	2.69 ng/mL
B6	51.4 nM	0.00291 s⁻¹	56600 M⁻¹ s⁻¹	74%	4250	> 50 % SP34	1.95 ng/mL
B7	70.2 nM	0.0159 s⁻¹	226000 M⁻¹ s⁻¹	26.2%	1330	≤ 50 % SP34	5.84 ng/mL
B8	80.5 nM	0.015 s⁻¹	187000 M⁻¹ s⁻¹	24%	1380	≤ 50 % SP34	6.04 ng/mL
B9	95.6 nM	0.0165 s⁻¹	173000 M⁻¹ s⁻¹	21.6%	1240	≤ 50 % SP34	7.28 ng/mL
B10	51.7 nM	0.053 s⁻¹	1.02e+06 M⁻¹ s⁻¹	74.9%	4140	> 50 % SP34	3.06 ng/mL
B11	43.6 nM	0.00307 s⁻¹	70400 M⁻¹ s⁻¹	76%	4370	> 50 % SP34	3.07 ng/mL
B12	11.1 nM	0.00106 s⁻¹	95400 M⁻¹ s⁻¹	77.2%	4260	> 50 % SP34	2.89 ng/mL
B13	79.2 nM	0.0187 s⁻¹	236000 M⁻¹ s⁻¹	19.1%	1100	≤ 50 % SP34	5.66 ng/mL
B14	44.1 nM	0.00306 s⁻¹	69300 M⁻¹ s⁻¹	78.4%	4500	> 50 % SP34	3.2 ng/mL
B15	12.6 nM	0.00354 s⁻¹	280000 M⁻¹ s⁻¹	18.4%	1060	≤ 50 % SP34	124 ng/mL
B16	53.5 nM	0.0152 s⁻¹	285000 M⁻¹ s⁻¹	20.1%	1150	≤ 50 % SP34	6.51 ng/mL
B17	55 nM	0.0155 s⁻¹	282000 M⁻¹ s⁻¹	34.9%	1770	≤ 50 % SP34	6.28 ng/mL
B18	40.4 nM	0.00441 s⁻¹	109000 M⁻¹ s⁻¹	14.2%	720	≤ 50 % SP34	428 ng/mL
B19	15.8 nM	0.00704 s⁻¹	445000 M⁻¹ s⁻¹	12.9%	656	≤ 50 % SP34	26.4 ng/mL
B20	13.5 nM	0.00547 s⁻¹	406000 M⁻¹ s⁻¹	22.6%	1140	≤ 50 % SP34	136 ng/mL
B21	76.2 nM	0.0151 s⁻¹	198000 M⁻¹ s⁻¹	75.2%	4150	> 50 % SP34	3.03 ng/mL
B22	15.8 nM	0.00648 s⁻¹	409000 M⁻¹ s⁻¹	14.8%	752	≤ 50 % SP34	16.4 ng/mL
B23	11.4 nM	0.00106 s⁻¹	93000 M⁻¹ s⁻¹	81%	4470	> 50 % SP34	3.05 ng/mL
B24	12.5 nM	0.00107 s⁻¹	85400 M⁻¹ s⁻¹	88.8%	4900	> 50 % SP34	2.82 ng/mL
B25	61.9 nM	0.111 s⁻¹	1.8e+06 M⁻¹ s⁻¹	71.9%	3970	> 50 % SP34	3.44 ng/mL
